Experimental data taken from article PMC4798592, “A Surfactant-Induced Functional Modulation of a Global Virulence Regulator from Staphylococcus aureus” (PLoS ONE, 2016).

Molecular target: the molecule itself
Test: cross-linking; glutaraldehyde-mediated cross-linking of rSarA (10 uM) in buffer B [20 mM phosphate buffer (pH 8.0), 100 mM NaCl, 5% glycerol] or buffer C (buffer B with 0.7 mM TX-100); analysed by SDS-13.5% PAGE

B1: recombinant S. aureus SarA (rSarA) (natural protein)
chain: MAITKINDCFELLSMVTYADKLKSLIKKEFSISFEEFAVLTYISENKEKEYYLKDIINHLNYKQPQVVKAVKILSQEDYFDKKRNEHDERTVLILVNAQQRKKIESLLSRVNKRITEANNEIEL
notes: source: purified as described [8]
For B1, the “stoichiometry N” value was 2.
